Assay results taken from publication PMC3017601 (Nucleic Acids Research, 2010).

Target: the molecule itself
Test: SEC

B1: SMG-9 (natural protein)
chain: MSESGHSQPGLYGIERRRRWKEPGSGGPQNLSGPGGRERDYIAPWERERRDASEETSTSVMQKTPIILSKPPAERSKQPPPPTAPAAPPAPAPLEKPIVLMKPREEGKGPVAVTGASTPEGTAPPPPAAPAPPKGEKEGQRPTQPVYQIQNRGMGTAAPAAMDPVVGQAKLLPPERMKHSIKLVDDQMNWCDSAIEYLLDQTDVLVVGVLGLQGTGKSMVMSLLSANTPEEDQRTYVFRAQSAEMKERGGNQTSGIDFFITQERIVFLDTQPILSPSILDHLINNDRKLPPEYNLPHTYVEMQSLQIAAFLFTVCHVVIVVQDWFTDLSLYRFLQTAEMVKPSTPSPSHESSSSSGSDEGTEYYPHLVFLQNKARREDFCPRKLRQMHLMIDQLMAHSHLRYKGTLSMLQCNVFPGLPPDFLDSEVNLFLVPFMDSEAESENPPRAGPGSSPLFSLLPGYRGHPSFQSLVSKLRSQVMSMARPQLSHTILTEKNWFHYAARIWDGVRKSSALAEYSRLLA
- stoichiometry N: ~2
